Laboratory results published in PMC9367177.

Target: CC12.1 (human)
Test: SPR

Sequence of CC12.1 (human) (heavy, as listed by the source, chain 1 of 2): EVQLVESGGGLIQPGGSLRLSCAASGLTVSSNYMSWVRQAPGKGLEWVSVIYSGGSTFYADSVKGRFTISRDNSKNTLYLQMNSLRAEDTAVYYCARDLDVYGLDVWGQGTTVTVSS
Sequence of CC12.1 (human) (light, as listed by the source, chain 2 of 2): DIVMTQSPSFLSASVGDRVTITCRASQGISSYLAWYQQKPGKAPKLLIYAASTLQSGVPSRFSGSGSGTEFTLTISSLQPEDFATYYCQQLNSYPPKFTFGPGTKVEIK

**Q.** With “SARS-CoV-2 RBD Alpha (B.1.1.7) (from UniProt P0DTC2) (domain or fragment)” as the substance, how does the Kd read?
**A.** 0.0144 µM
